One test relates to TNBS-treated rats. Briefly: Colonic distension-induced pain threshold in TNBS-treated rats (chronic colonic allodynia). In kind it is in vivo, rat. Particulars: 30 mg/kg s.c. in 20% cyclodextrin 30 minutes before distension, mean +/- SEM (n=7-8), vehicle 17.8+/-1.8, p<0.01. The procedure:
(§1) Adult male rats of the Wistar strain, 320 to 350 g in weight (obtained from the Janvier farm, Le Genest-Saint-Isle, France) were used for all the experiments. They were kept under controlled conditions of temperature (20+/−1° C.), humidity (50+/−5%) and lighting (light from 7 to 19 hours). The animals were starved of food for 18 hours before the beginning of the experiments, the supply of water being maintained.
(§2) Distension studies were carried out on waking rats in isobaric mode, using pressure increments of 5 mm of mercury every thirty seconds. A latex balloon, placed in the distal part of the colon is linked to an electronic barostat. The pain threshold is defined as the pressure inducing the first abdominal contraction. Each rat is subjected to four distension trials so as to increase the reproducibility of the test. The mean of the pressure values is calculated on the thresholds observed for the four successive distensions.
A laparotomy is carried out on rats anaesthetized with acepromazine (12 mg/kg i.p.) and ketamine (80 mg/kg i.p.) so as to inject into the proximal colon the trinitrobenzenesulphonic acid (TNBS) (50 mg/kg) in ethanol at 30%. The rats are then placed in individual cages. The colonic distension experiment is performed seven days after the administration of TNBS. […]

The next test relates to naïve rats. Briefly: Colonic distension-induced pain threshold in naïve rats (isobaric balloon distension). In kind it is in vivo, rat. The protocol: as §1, §2
2.5 S-NGF obtained from mouse submaxillary gland (marketed by the company SIGMA under the reference N-6009) is dissolved in 0.1% bovine serum albumin (BSA). Into the naïve rats, 0.1 ng to 100 ng of NGF are injected by the i.p. route, 30 minutes before the distension.
Naïve rats were subjected to distension experiments with a balloon placed in the distal part of the colon. […]

In the case of `O=C1c2cccc3cc([N+](=O)[O-])cc(c23)C(=O)N1NCCO` [ALE-0540], in the test with TNBS-treated rats, the colonic pain threshold is given as 37.6+/−4.5 mmHg.

B1: NGF: 2.5 S-NGF obtained from mouse submaxillary gland (SIGMA reference N-6009) (protein, UniProt P01139 122-241, looked up)
Beta-nerve growth factor: SSTHPVFHMGEFSVCDSVSVWVGDKTTATDIKGKEVTVLAEVNINNSVFRQYFFETKCRASNPVESGCRGIDSKHWNSYCTTTHTFVKALTTDEKQAAWRFIRIDTACVCVLSRKATRRG
modifications: Beta-nerve growth factor
As for B1, the colonic pain threshold entry in the test on naïve rats (naïve Wistar rats, 1 ng of NGF i.p. 30 minutes before distension, control (BSA) about 44 mmHg) is “less than 20 mmHg”. Further, the “effect on threshold of pain in the colon” value with naïve rats (naïve rats, increasing doses of NGF (0.1 ng to 100 ng) i.p.) is recorded as “significant reduction”.

The values above are taken from patent publication US20040071701A1, “Use of NGF-antagonists for the prevention or treatment of chronic visceral pain” (priority 2002, published 2004).
